This is an account of results in publication PMC8401098, “The Uncommon Active Site of D-Amino Acid Transaminase from Haliscomenobacter hydrossis: Biochemical and Structural Insights into the New Enzyme” (Molecules, 2021).

Data set [1] addresses T1, Halhy (D-amino acid transaminase from Haliscomenobacter hydrossis) (Haliscomenobacter hydrossis, UniProt F4KWH0).
T1 construct: gene Halhy_2446; N-terminal His6-TEV tag cut off with TEV protease; E. coli Rosetta(DE3) pLysS; codon-optimised synthetic gene; homodimer (about 62 kDa by gel filtration)
The experiment in a line: X-ray crystal structure, […] Å. It is filed as binding. Particulars: covalent; Schiff base with K143; holo form, pH 4.8.

Substrate in data set [2]: O=C(O)CCC(=O)C(=O)O
Description: purified protein. It is filed as biochemical, Haliscomenobacter hydrossis. Particulars: D-alanine 40 mM, 50 mM K-phosphate pH 8, 30 µM PLP.

Substrate in data set [3]: C[C@@H](N)C(=O)O
The experiment in a line: purified protein. Particulars: α-ketoglutarate 5 mM, 50 mM K-phosphate pH 8, 30 µM PLP, 40 °C.

Substrate in data set [4]: CC(C)CC(=O)C(=O)O
Description: steady-state kinetics of overall transamination. It is filed as biochemical, Haliscomenobacter hydrossis. Particulars: D-alanine 40 mM, 50 mM K-phosphate pH 8, 30 µM PLP, 40 °C. An excerpt:
steady-state kinetics of overall transamination on Halhy (D-amino acid transaminase from Haliscomenobacter hydrossis)

Substrate in data set [5]: CC(=O)C(=O)O
Description: purified protein. It is filed as biochemical, Haliscomenobacter hydrossis. Particulars: D-glutamate 4 mM, 50 mM K-phosphate pH 8, 30 µM PLP, 40 °C.

Substrate in data set [6]: N[C@H](CCC(=O)O)C(=O)O
Description: purified protein. Particulars: pyruvate 2.5 mM, 50 mM K-phosphate pH 8, 30 µM PLP, 40 °C. It counts as biochemical, Haliscomenobacter hydrossis.

Substrate in data set [7]: CC(C)C[C@@H](N)C(=O)O
The experiment in a line: steady-state kinetics of overall transamination (HPLC of 4-methyl-2-oxovalerate). It counts as biochemical, Haliscomenobacter hydrossis. Particulars: α-ketoglutarate 5 mM, 50 mM K-phosphate pH 8, 30 µM PLP, 40 °C. An excerpt: steady-state kinetics of overall transamination (HPLC of 4-methyl-2-oxovalerate) on Halhy (D-amino acid transaminase from Haliscomenobacter hydrossis)

Numbering of substitutions follows the chain as printed. In names and notes the source's numbering stands.

T1 sequence (F4KWH0 entry or part of it): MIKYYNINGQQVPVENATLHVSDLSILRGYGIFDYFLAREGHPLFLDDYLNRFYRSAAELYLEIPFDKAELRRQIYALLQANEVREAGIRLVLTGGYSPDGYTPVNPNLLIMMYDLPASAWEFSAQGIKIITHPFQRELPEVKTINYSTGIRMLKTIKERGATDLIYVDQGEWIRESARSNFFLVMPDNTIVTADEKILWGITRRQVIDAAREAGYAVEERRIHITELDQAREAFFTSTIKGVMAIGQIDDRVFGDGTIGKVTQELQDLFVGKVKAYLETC

In the case of `Cc1ncc(COP(=O)(O)O)c(C=O)c1O` [pyridoxal-5'-phosphate], the “X-ray crystal structure, 2.0 Å” value in data set [1] is recorded as “structure of WT Halhy in the holo form with a covalently bound PLP was determined”.

B1: Halhy (D-amino acid transaminase from Haliscomenobacter hydrossis) (Haliscomenobacter hydrossis DSM 1100; R179G) (protein)
chain: MIKYYNINGQQVPVENATLHVSDLSILRGYGIFDYFLAREGHPLFLDDYLNRFYRSAAELYLEIPFDKAELRRQIYALLQANEVREAGIRLVLTGGYSPDGYTPVNPNLLIMMYDLPASAWEFSAQGIKIITHPFQRELPEVKTINYSTGIRMLKTIKERGATDLIYVDQGEWIRESAGSNFFLVMPDNTIVTADEKILWGITRRQVIDAAREAGYAVEERRIHITELDQAREAFFTSTIKGVMAIGQIDDRVFGDGTIGKVTQELQDLFVGKVKAYLETC
notes: N-terminal His6-TEV tag cut off with TEV protease; E. coli Rosetta(DE3) pLysS; codon-optimised synthetic gene; homodimer (about 62 kDa by gel filtration)
Consider B1, for which, in the data set “purified protein [2]” (25 °C), the Km – broadly, the substrate concentration at which the rate is half of its maximum – is recorded as 8.1 ± 0.8 mM; the kcat (commonly the maximal rate divided by the concentration of active sites) turned out to be 8.6 ± 0.6 s⁻¹; the kcat/Km (usually the turnover number divided by the Michaelis constant) was 1100 M⁻¹ s⁻¹.

B2: Halhy (D-amino acid transaminase from Haliscomenobacter hydrossis) (Haliscomenobacter hydrossis DSM 1100) (protein)
chain: B1 chain with G179R
notes: as for B1
Regarding B2, the Km in “purified protein [3]” came out at 23 ± 1 mM; in data set [4], 70 ± 6 mM; in “purified protein [5]”, 2.1 ± 0.1 mM; in the data set “purified protein [6]”, 10.3 ± 0.7 mM; in “purified protein [2]” (40 °C) it was 2.3 ± 0.2 mM; in data set [7], 83 ± 8 mM. Further, the kcat in “purified protein [3]” came to 146 ± 4 s⁻¹; in data set [4] it was 4.2 ± 0.1 s⁻¹; in the data set “purified protein [5]” it was 215 ± 6 s⁻¹; in “purified protein [6]”, 215 ± 6 s⁻¹; in the data set “purified protein [2]” (40 °C) it was 146 ± 4 s⁻¹; in data set [7] it was 10.5 ± 0.4 s⁻¹. The kcat/Km in the data set “purified protein [3]” was found to be 6300 M⁻¹ s⁻¹; in data set [4], 60 M⁻¹ s⁻¹; in “purified protein [5]”, 103000 ± 8000 M⁻¹ s⁻¹; in the data set “purified protein [6]”, 21000 ± 2000 M⁻¹ s⁻¹; in the data set “purified protein [2]” (40 °C), 63000 ± 7000 M⁻¹ s⁻¹; in data set [7] it was 130 M⁻¹ s⁻¹.
